Data from the supplement of paper PMC12042874.
± gives the uncertainty stated by the source.

Experiment: amyloid nucleation score (Sup35N fusion, yeast selection) (log enrichment); library NNK1; higher = more nucleation; inactive = no reads after selection
In short: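 Peptides of 20 random codons fused to Sup35N were expressed in psi-negative yeast, induced 24 hours with 100 μM copper sulfate, then grown 7 days at 30°C on medium lacking adenine and uracil. Input and output plasmid inserts were Illumina-sequenced. Nucleation score is the DiMSum log enrichment of output over input reads, centred on the mode score of non-aggregating sequences, excluding sequences with under 100 input reads. Random libraries had three technical output replicates.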

Row | Substance | amyloid nucleation score
1 | CLFRCVVEPLVIGYTKCAS | inactive
2 | CLFSRELTLSPLWDLVK | 1.79 ± 0.15
3 | CLGHLLLTESIPCSFCSYWM | 4.55 ± 0.075
4 | CLGNNSFGDLGI | 0.368 ± 0.34
5 | CLGVSSGRLKCYVNYYCDNW | 0.106 ± 0.51
6 | CLLSRLYMVSLFWS | 0.033 ± 0.43
7 | CLLVKLARLGDG | 0.536 ± 0.63
8 | CLPCVCIVNFTLGYDKGVV | 8.027 ± 0.048
9 | CLPLACLKTLSNDSVWLDCA | 0.402 ± 0.35
10 | CLPRSGLSINWTVSHNYRLI | 0.11 ± 0.25
11 | CLRLELDKF | 3.34 ± 0.12
12 | CLSRKSWFWHGRWESVSCHP | -0.018 ± 0.53
13 | CLSRLLVLKYLSTWSKKWVW | -0.115 ± 0.25
14 | CLSYIVVALVRCTDIYYP | 0.763 ± 0.42
15 | CLVKTSSVSTIWLVSCNTRT | 0.648 ± 0.55
16 | CLVVVISS | -0.369 ± 0.57
17 | CLVWLGNNFLDSLWGEGGRA | -0.291 ± 0.38
18 | CLWGILDEGRFGSWFNNFAS | 0.467 ± 0.9
19 | CLYWFLKEHFC | 1.06 ± 0.78
20 | CMDRSLMVNNTRPYGCLLEY | 6 ± 0.061
21 | CMMSNRTCQAQLVMMWEMW | inactive
22 | CMNSMC | 0.066 ± 0.66

Row | Substance | amyloid nucleation score
23 | CMSVETLTEMVYFKSYTL | 0.257 ± 0.42
24 | CNFLLATWRRLKYTSQYLKS | -0.073 ± 0.69
25 | CNFSQYMRVHHTSYLEPTDH | 3.22 ± 0.12
26 | CNICNPI | -0.585 ± 1.6
27 | CNNSSGRVVRLCSMDGGLLG | -0.021 ± 0.65
28 | CNTPSTCNCVIVRPSYPSQY | -0.088 ± 0.61
29 | CNVGLKVYLADISSGSVCYL | 4.39 ± 0.075
30 | CPGFFILVQCIVYMDTDCGF | 3.81 ± 0.095
31 | CPMEKSGVELDV | 0.094 ± 0.41
32 | CPNIEKPSLLST | -2.01 ± 2.4
33 | CPVGQTNCQDL | 0.072 ± 0.51
34 | CPWRNRII | 0.684 ± 0.6
35 | CQSFIGTDTKFVIPDMVLAA | inactive
36 | CQVPSGESNDSPVLRHI | -0.138 ± 0.43
37 | CQVVLISWTGSHKGNLEHNA | 1.08 ± 0.3
38 | CQYMFHIWQLIANHVI | 0.799 ± 0.43
39 | CRDNCCPLVVYW | 0.531 ± 0.33
40 | CRDRRS | 1.91 ± 0.35
41 | CRFMNVRYGKRMKVDNTVMA | -0.891 ± 1.4
42 | CRFPCSCHRWSMIRSVVCKR | 0.03 ± 0.97
43 | CRLSTS | -0.966 ± 0.42
44 | CRSSGADSRLLNIVKPCTLP | -0.616 ± 0.33

Row | Substance | amyloid nucleation score
45 | CRTVAHFRP | 0.481 ± 0.61
46 | CSAKNLYVTTQFSLVLFVGS | 6.422 ± 0.052
47 | CSDKKLGEWSASWNCNRDRM | -0.171 ± 1.7
48 | CSGNI | -1.32 ± 1.7
49 | CSIVYCMCGLCAS | 8.43 ± 0.055
50 | CSNRWYVNMFVHWIFVHLGS | 1.47 ± 0.53
51 | CSPLVGMTGAMLTVRGSISR | 0.019 ± 1
52 | CSRNTSVA | 1.01 ± 0.57
53 | CSRRFYESPCKEPAA | 0.145 ± 0.43
54 | CSTQRVPGGGLGKSWL | 0.18 ± 1.2
55 | CSTRLSSKFSDTIYVEVFSF | inactive
56 | CSTTLEVTVGMAVVMLLQGI | 2.66 ± 0.086
57 | CSWVTPNGRVLHCLTNLYYY | 0.297 ± 0.59
58 | CSYPHIDIAPRSACPTWTQD | 0.432 ± 0.72
59 | CTARLIA | 0.13 ± 0.28
60 | CTDPFQDLTRELLLLVCIGL | -0.201 ± 0.65
61 | CTFKAWRLYSVNKDSRIVLK | -0.576 ± 1.1
62 | CTSLDFSNKVRCVMGQSVLL | -0.606 ± 0.97
63 | CVAGLVDGKRKNVIRKWFWN | 0.049 ± 0.44
64 | CVARIDCEWIKPLSLHCSCT | -0.499 ± 1.3
65 | CVFRSYQWWSSHLYFVNVCN | 0.667 ± 0.68
66 | CVFYASTYVIPYNCENNFTI | 0.952 ± 0.26

Row | Substance | amyloid nucleation score
67 | CVFYCRR | 0.091 ± 1.1
68 | CVFYISINCYFIWVRLDWVY | inactive
69 | CVKRLLPVYWWGESG | 0.123 ± 0.91
70 | CVMYSRGFYCADCVCNLMPC | 4.85 ± 0.053
71 | CVPPRVRCRFEL | 0.792 ± 0.46
72 | CVSATRV | 0.042 ± 0.48
73 | CVSPSVTNFAELVSIVISPS | 0.652 ± 0.66
74 | CVTLCSDVSYSTYNWLPFIR | 0.834 ± 0.44
75 | CVYGGIFYRTGYLYFEVYFY | 0.134 ± 0.31
76 | CWASRSSCSLLYVRVVMRHC | 0.371 ± 0.57
77 | CWDGRQIWVILVIVLIRINA | -0.466 ± 0.91
78 | CWKLETYTSTDSQVGQANLK | -1.28 ± 0.96
79 | CWPSRQF | 0.373 ± 0.94
80 | CWRSVCGLLATGNQYFFGNA | 4.88 ± 0.07
81 | CWVYFSNSSVILRR | 0.074 ± 0.84
82 | CYGFCNCQYSESSKLLFDAL | -1.11 ± 0.34
83 | CYSAVPIYDFKYRPAGYYIS | inactive
84 | CYSGCYRLCRVIVASCRCRG | 0.015 ± 0.71
85 | CYSVIRREQNLNILV | 1.71 ± 0.53
86 | CYTHPVMSITLNSI | 2.36 ± 0.15
